Reference: US20260297135 (published 2026)

T1: integrin αvβ8 (human, UniProt P06756)
T1 chain 1: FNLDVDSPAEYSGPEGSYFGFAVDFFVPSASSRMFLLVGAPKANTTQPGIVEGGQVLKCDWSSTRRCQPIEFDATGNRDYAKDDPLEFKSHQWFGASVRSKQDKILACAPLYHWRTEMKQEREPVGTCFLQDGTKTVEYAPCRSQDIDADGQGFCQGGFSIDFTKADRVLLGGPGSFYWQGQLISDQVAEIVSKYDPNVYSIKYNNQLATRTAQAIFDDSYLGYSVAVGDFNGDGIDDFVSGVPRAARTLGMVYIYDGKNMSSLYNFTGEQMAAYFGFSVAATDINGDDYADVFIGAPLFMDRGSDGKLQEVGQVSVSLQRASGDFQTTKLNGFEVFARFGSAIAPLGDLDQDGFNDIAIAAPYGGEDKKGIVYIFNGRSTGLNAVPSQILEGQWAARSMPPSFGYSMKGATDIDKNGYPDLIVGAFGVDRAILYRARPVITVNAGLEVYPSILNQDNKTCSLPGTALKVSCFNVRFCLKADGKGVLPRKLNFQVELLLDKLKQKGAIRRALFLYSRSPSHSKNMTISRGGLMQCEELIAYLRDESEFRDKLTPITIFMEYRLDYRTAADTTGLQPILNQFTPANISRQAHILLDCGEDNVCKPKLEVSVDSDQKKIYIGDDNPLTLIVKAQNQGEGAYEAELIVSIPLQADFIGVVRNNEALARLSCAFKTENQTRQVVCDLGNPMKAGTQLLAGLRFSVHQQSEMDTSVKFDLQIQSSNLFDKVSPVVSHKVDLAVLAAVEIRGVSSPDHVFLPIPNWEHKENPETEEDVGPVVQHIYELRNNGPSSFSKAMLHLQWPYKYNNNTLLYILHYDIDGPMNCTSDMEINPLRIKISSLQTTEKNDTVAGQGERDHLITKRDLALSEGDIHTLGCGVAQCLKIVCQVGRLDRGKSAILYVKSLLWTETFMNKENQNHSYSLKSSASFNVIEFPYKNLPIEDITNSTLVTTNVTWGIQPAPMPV
T1 chain 2: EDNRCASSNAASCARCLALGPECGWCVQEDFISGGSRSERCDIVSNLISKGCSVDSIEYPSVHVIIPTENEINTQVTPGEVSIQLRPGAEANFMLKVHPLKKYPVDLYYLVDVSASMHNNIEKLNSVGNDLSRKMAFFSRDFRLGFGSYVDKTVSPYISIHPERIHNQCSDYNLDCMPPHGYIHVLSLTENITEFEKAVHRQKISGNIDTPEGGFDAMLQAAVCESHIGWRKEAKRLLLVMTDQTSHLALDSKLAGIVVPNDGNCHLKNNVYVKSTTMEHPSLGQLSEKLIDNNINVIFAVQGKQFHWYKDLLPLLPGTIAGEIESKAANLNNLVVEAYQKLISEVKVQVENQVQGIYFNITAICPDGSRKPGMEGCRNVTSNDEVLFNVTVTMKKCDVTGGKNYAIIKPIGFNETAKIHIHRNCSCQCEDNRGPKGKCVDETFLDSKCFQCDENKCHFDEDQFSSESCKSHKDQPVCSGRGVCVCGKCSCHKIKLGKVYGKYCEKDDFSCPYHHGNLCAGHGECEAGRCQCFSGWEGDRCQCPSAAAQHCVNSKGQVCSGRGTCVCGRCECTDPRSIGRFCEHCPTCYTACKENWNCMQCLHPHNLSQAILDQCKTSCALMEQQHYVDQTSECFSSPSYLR

T2: integrin αvβ6 (human, UniProt P06756)
T2 chain 1: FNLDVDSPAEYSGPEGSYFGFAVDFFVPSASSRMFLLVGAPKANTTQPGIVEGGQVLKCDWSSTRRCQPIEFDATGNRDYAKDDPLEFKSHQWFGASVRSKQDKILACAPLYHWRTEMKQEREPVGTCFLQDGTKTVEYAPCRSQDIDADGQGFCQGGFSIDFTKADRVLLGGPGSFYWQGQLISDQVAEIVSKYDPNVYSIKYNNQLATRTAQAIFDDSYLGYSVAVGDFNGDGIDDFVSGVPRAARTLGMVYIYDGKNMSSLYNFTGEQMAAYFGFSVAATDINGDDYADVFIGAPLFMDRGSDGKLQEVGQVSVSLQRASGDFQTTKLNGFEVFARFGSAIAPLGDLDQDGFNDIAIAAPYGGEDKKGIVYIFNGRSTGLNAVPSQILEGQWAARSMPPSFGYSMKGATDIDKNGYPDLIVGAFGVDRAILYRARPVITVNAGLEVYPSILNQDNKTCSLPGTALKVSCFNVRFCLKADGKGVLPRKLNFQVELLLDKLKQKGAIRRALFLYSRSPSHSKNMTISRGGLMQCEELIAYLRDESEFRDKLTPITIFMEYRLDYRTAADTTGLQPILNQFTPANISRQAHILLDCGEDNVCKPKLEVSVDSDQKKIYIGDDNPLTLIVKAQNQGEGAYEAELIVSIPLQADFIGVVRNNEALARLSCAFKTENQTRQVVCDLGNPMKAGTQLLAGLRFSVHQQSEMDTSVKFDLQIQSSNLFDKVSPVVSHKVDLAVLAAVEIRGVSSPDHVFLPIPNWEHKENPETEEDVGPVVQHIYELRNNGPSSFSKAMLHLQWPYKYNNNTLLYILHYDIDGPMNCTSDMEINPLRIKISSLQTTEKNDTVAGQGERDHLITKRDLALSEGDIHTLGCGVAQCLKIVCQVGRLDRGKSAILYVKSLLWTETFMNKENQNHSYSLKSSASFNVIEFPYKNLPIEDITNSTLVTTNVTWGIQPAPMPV
T2 chain 2: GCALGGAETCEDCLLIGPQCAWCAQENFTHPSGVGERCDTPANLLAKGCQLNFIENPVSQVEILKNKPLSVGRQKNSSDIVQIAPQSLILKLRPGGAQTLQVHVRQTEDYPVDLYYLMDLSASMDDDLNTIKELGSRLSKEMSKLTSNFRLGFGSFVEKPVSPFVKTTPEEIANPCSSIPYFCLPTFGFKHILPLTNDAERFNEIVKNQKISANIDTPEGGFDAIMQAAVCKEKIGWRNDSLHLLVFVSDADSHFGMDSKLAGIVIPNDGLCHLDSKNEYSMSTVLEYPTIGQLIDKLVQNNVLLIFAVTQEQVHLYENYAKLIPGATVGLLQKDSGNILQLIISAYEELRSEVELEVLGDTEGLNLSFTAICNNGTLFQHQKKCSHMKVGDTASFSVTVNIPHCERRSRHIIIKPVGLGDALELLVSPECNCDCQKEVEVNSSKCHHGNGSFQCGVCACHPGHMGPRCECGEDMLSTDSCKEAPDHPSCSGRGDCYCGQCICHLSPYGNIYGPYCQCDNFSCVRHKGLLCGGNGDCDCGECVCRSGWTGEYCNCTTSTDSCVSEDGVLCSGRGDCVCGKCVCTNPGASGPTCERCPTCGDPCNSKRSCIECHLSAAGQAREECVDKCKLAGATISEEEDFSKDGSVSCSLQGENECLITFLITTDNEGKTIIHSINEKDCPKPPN


Columns and labels:
[1] = target: T1, integrin αvβ8; experiment: BLI
[2] = target: T2, integrin αvβ6; experiment: BLI, at 500 nM
[3] = target: T1, integrin αvβ8; experiment: competition, hLAP1
[4] = target: T2, integrin αvβ6; experiment: competition, hLAP1
[5] = target: T2, integrin αvβ6; experiment: BLI

Binder | Kd [1] [nM] | binding result [2] | IC50 [3] [nM] | binding result [4] | Kd [5] [nM]
B8_BP-LATY (avb8_3_LATY) (designed binder) TKCVVRFNFRGDLATYALKAVKDHLKKEGPHWNITTHNDDEVYLVVRGIHESDAKRIAKWVESTIPGISVETQCD | 0.5 | no binding |  |  | 
B8_BP_dslf (avb8_3) (designed binder) TKCVVRFNFRGDMAVYALKAVKDHLKKEGPHWNITTHNDDEVYLVVRGIHESDAKRIAKWVESTIPGISVETQCD | 1.9 |  | 2.68 | no binding | 
avb8_12 (LATI) (designed binder) TKCVVRFNFRGDLATIALKAVKDHLKKEGPHWNITTHNDDEVYLVVRGIHESDAKRIAKWVESTIPGISVETQCD |  |  |  |  | 1.13
